Holding throughout (test): MST; in solution; Monolith NT.115 RED; Hill fit model for multiple binding; apparent dissociation constants (Kdapp); three independent binding experiments
The target of experiment [1] is soluble murine Fc-Dectin-1a receptor (mouse) (UniProt Q6QLQ4).
Experiment [2] concerns the target soluble receptor TLR5 (UniProt Q9JLF7).
Experiment [3] concerns the target soluble receptor TLR5 (UniProt Q9JLF7 27-641, Supplement states soluble human TLR5 fused to an IgG1 Fc domain (Fc carrier left out; 2 copies assumed from Fc dimerisation); limits are the UniProt extracellular domain by convention; lysine/amine la). To be noted: both partners purified.

Chain of soluble murine Fc-Dectin-1a receptor (mouse) (Q6QLQ4 71-244): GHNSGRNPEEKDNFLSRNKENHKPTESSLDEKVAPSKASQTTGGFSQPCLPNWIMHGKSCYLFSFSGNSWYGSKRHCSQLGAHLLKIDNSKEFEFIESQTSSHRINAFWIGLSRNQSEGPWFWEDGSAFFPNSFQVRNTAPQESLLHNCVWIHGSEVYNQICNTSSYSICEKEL
Chain of soluble receptor TLR5 (UniProt Q9JLF7 27-641, Supplement states soluble human TLR5 fused to an IgG1 Fc domain (Fc carrier left out; 2 copies assumed from Fc dimerisation); limits are the UniProt extracellular domain by convention; lysine/amine la) (Q9JLF7 27-641): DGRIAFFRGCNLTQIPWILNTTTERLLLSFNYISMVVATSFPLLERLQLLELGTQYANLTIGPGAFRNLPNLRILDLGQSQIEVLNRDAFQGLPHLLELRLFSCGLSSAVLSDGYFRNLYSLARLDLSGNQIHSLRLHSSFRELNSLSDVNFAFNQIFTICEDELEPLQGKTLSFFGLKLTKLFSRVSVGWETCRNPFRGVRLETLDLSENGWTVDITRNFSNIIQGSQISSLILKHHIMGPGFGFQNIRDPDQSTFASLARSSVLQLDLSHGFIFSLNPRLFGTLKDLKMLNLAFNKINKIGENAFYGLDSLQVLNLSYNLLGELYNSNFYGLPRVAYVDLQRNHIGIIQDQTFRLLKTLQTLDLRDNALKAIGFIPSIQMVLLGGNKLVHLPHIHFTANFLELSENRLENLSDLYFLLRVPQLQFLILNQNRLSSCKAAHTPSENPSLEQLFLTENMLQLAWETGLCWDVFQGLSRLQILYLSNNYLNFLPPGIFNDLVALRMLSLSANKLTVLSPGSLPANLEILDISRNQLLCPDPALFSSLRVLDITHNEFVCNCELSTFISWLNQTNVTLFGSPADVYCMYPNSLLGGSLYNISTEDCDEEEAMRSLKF
Chain of soluble receptor TLR5 (UniProt Q9JLF7) (Q9JLF7 27-641): as above

“laminarin-ovalbumin neoglycoconjugate (LamOVA) (from UniProt P01012 1-386)”: in experiment [1], the Kd was 170 nM; the Kdapp counted on the laminarin concentration (carbohydrate to protein ratio 0.6) turned out to be 0.99 µM; the Kdapp counted on the laminarin concentration (carbohydrate to protein ratio 2.5, anthrone method) is 4.22 µM. For the same molecule, the Kdapp (concentration basis not stated; compared with the 0.99 µM for Dectin-1) in the experiment with soluble receptor TLR5 [2] turned out to be 6 µM.

B1: ovalbumin (EndoFit Ovalbumin, endotoxin-free) (natural protein, UniProt P01012 1-386, looked up)
chain: MGSIGAASMEFCFDVFKELKVHHANENIFYCPIAIMSALAMVYLGAKDSTRTQINKVVRFDKLPGFGDSIEAQCGTSVNVHSSLRDILNQITKPNDVYSFSLASRLYAEERYPILPEYLQCVKELYRGGLEPINFQTAADQARELINSWVESQTNGIIRNVLQPSSVDSQTAMVLVNAIVFKGLWEKAFKDEDTQAMPFRVTEQESKPVQMMYQIGLFRVASMASEKMKILELPFASGTMSMLVLLPDEVSGLEQLESIINFEKLTEWTSSNVMEERKIKVYLPRMKMEEKYNLTSVLMAMGITDVFSSSANLSGISSAESLKISQAVHAAHAEINEAGREVVGSAEAGVDAASVSEEFRADHPFLFCIKHIATNAVLFFGRCVSP
notes: ovalbumin (OVA), endotoxin-free commercial preparation; crystal structure 1OVA named for it; Commercial ovalbumin; also called unconjugated OVA; soluble OVA; source: bought: InvivoGen (EndoFit Ovalbumin)
In the case of B1, the results for the Kd (in experiment [1]; with soluble receptor TLR5 [3]) were 5330 nM and 800 ± 300 nM, respectively.

These data come from paper PMC7818228, “Laser‐facilitated epicutaneous immunotherapy with hypoallergenic beta‐glucan neoglycoconjugates suppresses lung inflammation and avoids local side effects in a mouse model of allergic asthma” (Allergy, 2020).
